B1: Hammerhead Ribozyme (parent)
chain: ACCGGAUGUGCUUUCCGGUCUGAUGAGUCCGUGAGGACGAAACAG

The results in this text go back to the RNAGym collection of RNA variant scans (doi:10.7554/elife.80360).

In this data set the parent is B1. In words: self-cleavage, relative activity (ratio to wild type); higher = more cleavage; co-transcriptional.
With G18C C20U, the self-cleavage turned out to be 0.339.
G8C G39C: the self-cleavage stood at 0.407.
On to C15U G27A, for which the self-cleavage was determined as 0.687.
Take C30G A41U: the self-cleavage is 0.266.
With U21G A26U the figure was 0.431; with G4C A37G, 0.516; with C15A G35A, 0.453.
With A6C C20G the figure was 0.335; with C15U U28C, 0.803; with C3A G5C, 0.319.
For C29A A44G the value was 0.765; for G25A G36A, 0.32; for G25A G36U, 0.33.
Regarding A1C G27U, the self-cleavage stood at 0.328.
For G4C G45U the value was 0.4.
With C11G G27C the figure was 0.938.
For G36U C38A the value was 0.326.
With C20U U28C, the self-cleavage is 0.661.
For C11U A37G the value was 1.12; for U12C G17U, 0.612.
Turning to G8C G27C, the self-cleavage worked out at 0.63.
Turning to G4C C20A, the self-cleavage came to 0.244.
With U21C A37G the figure was 0.866; with G18A U24A, 0.748.
For C2G G17A the value was 0.377; for G25U C38A, 0.328.
With G4U A6C the figure was 0.282; with C3A U12G, 0.487.
With C3A U12C, the self-cleavage was 0.262.
Consider U7A G25C, for which the self-cleavage stood at 0.279.
With C15U G18A the figure was 0.554; with G18A C20U, 0.312; with U12C G36A, 0.55.
In the case of U19G U28C, the self-cleavage worked out at 0.352.
For U9A U14C the value was 0.73.
Consider A23C G45C, for which the self-cleavage came out at 0.376.
For G22A G36C the value was 0.309; for C16G U21G, 0.278.
With A6G U21C the figure was 0.54.
For U24C A37U the value was 0.768.
For the variant C16G G18U, the self-cleavage came to 0.744.
With C20A A26C, the self-cleavage came to 0.397.
For C20A A26G the value was 0.344.
With G4U C16A the figure was 1.07; with G35A G45C, 0.437.
For G31C A42C the value was 0.328.
Regarding U12A U19G, the self-cleavage stood at 0.431.
On to C11A G25C, for which the self-cleavage is 0.284.
With A42U A44C the figure was 0.96.
For the variant U13G G36C, the self-cleavage is 0.709.
With U13A A42U the figure was 0.339; with U7A A26C, 0.311.
With C11A U19C the figure was 0.603; with C11A U19A, 0.358.
As to A41C, the self-cleavage was found to be 0.376.
With U7C A37G the figure was 0.771; with U9A G33U, 0.908.
With G4A A26U the figure was 0.472; with G4A A26C, 0.302.
With C2U U13C the figure was 1.34; with C16G C20G, 0.317.
Take G36C A40U: the self-cleavage was 0.346.
For A1G U14A the value was 1.46; for A1G U14G, 1.85; for G4U A44C, 0.401.
On to C16U A26C, for which the self-cleavage was 0.467.
With G22A G45U the figure was 0.383; with C3A G8U, 0.902.
With C16A G45C the figure was 0.501.
With U12C G27U the figure was 0.581.
With U21A C38A, the self-cleavage came to 0.363.
With G25C G35U the figure was 0.357; with G18A G36C, 0.299; with U19G A44G, 0.623.
Consider G8C, for which the self-cleavage turned out to be 1.06.
With C3G G25C the figure was 0.33.
A1U U12G: the self-cleavage is 0.753.
With G17A C43U the figure was 0.335.
Regarding C29U, the self-cleavage worked out at 0.947.
With U12A A40U the figure was 0.32.
For G36U A44G the value was 0.706.
For U9G C11A the value was 1.47; for A1G C29G, 1.02; for G10U G25C, 0.375.
C11G A23U: the self-cleavage is 0.41.
Regarding G5C G36U, the self-cleavage was 0.33.
For A23G A42C the value was 0.31; for U7C U9G, 0.667.
For A34C A44C the value was 0.341; for A40U C43A, 0.344.
With U9C G33A, the self-cleavage was 0.952.
For C3A C43U, the self-cleavage worked out at 0.378.
For U7C U14C the value was 0.585; for U19G A42G, 0.317.
For U14G G27A, the self-cleavage is 0.757.
With A6G U32G the figure was 0.431.
For G5U G25U the value was 0.355; for A23C A44C, 0.39; for U14C G27U, 0.331.
For U7A U12A the value was 1.55.
As to U7A U12G, the self-cleavage stood at 1.33.
G4C G25C: the self-cleavage amounted to 0.289.
In the case of C38A C43A, the self-cleavage worked out at 0.335.
For C38A C43G the value was 0.382; for C11G G31A, 1.03.
With U24A U32G the figure was 0.644.
For the variant G17U G22C, the self-cleavage turned out to be 0.314.
With G25C G36C the figure was 0.281.
For G5C C16A the value was 1.19; for C16U G36U, 0.507.
For U12C A37C the value was 0.573.
For the variant C3U C11U, the self-cleavage turned out to be 0.504.
For A23G A41G the value was 0.334; for G8A A40U, 0.343; for U13A A44C, 0.619.
With A23G C30A the figure was 0.305.
As for C2U C15A, the self-cleavage stood at 0.397.
For C15A G31U the value was 0.999; for U24C G39C, 0.352.
For U12A G35U the value was 0.629; for C30U A40G, 0.333; for C20G C38U, 0.38.
For C11G U24C, the self-cleavage was found to be 1.07.
For the variant G35A C38G, the self-cleavage is 0.387.
With G35A C38A the figure was 0.482; with G25U G36U, 0.334.
For U9G A34G the value was 1.04; for A1G G10C, 1.61.
With G5U G31C the figure was 1.03.
For the variant U9A C29A, the self-cleavage was determined as 0.49.
For G10A G25U the value was 0.345; for G22U G25A, 0.269; for G8A G35A, 0.939.
With G8C A42U the figure was 0.266.
For C16U G39U the value was 0.378; for G18C G31U, 0.673.
For the variant U32C A37U, the self-cleavage turned out to be 0.752.
U9C G27A: the self-cleavage was determined as 0.973.
For A1C G22U the value was 0.466; for G25C U32G, 0.281.
With C30A A44G the figure was 0.819; with G4A A37C, 0.491; with A42U G45U, 0.427.
Regarding U13G G39U, the self-cleavage turned out to be 0.299.
With A6U A34U the figure was 0.631; with U13A G22C, 0.312; with U9G U32A, 1.31.
Take G4C G31A: the self-cleavage came out at 0.939.
For the variant C30G G33A, the self-cleavage was 0.715.
With G17C U32C the figure was 0.444; with G5A C30G, 0.597.
For A1G U32C the value was 1.48; for G18U A40C, 0.394; for G18U A40G, 0.357.
For U32G C38G the value was 0.497.
Turning to G4U G33A, the self-cleavage was 0.608.
For U7A A41G the value was 0.368; for G8C G10A, 1.47.
In the case of A34U G36A, the self-cleavage came out at 0.437.
With C29G G39C the figure was 0.317; with C15U G35A, 0.756; with G4U C15A, 0.425.
For the variant G4A G27U, the self-cleavage amounted to 0.366.
For G4A G27A the value was 0.332; for G25U A42U, 0.349.
For U7A U19C the value was 0.402.
For U7A U19G the value was 0.25.
